Measured values reported in patent US20180155451A1 (published 2018).

T1: FcgRIIa R extracellular domain with C-terminal His tag (human, UniProt P12318 34-217)
T1 construct: extracellular domain; also called FcγRIIa R; FcγRIIa type R; not shown: His tag attached to the C terminus
T1 sequence (looked up): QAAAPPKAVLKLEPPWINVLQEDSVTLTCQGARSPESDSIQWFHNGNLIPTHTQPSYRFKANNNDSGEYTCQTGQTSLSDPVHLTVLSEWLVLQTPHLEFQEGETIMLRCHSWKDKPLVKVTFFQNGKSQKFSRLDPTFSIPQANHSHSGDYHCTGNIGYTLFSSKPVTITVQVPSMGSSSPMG

T2: FcgRIIb extracellular domain with C-terminal His tag (human, UniProt P31994 43-217)
T2 construct: extracellular domain; also called FcγRIIb; not shown: His tag attached to the C terminus
T2 sequence (looked up): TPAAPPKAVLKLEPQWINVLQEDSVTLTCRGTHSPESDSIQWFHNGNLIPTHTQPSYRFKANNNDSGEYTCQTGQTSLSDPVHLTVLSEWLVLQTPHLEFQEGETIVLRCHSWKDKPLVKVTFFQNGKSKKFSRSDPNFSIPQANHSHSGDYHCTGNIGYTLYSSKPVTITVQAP

T3: FcgRIIa H extracellular domain with C-terminal His tag (human, UniProt P12318 34-217)
T3 construct: extracellular domain; also called FcγRIIa H; FcγRIIa type H; not shown: His tag attached to the C terminus
T3 sequence (looked up): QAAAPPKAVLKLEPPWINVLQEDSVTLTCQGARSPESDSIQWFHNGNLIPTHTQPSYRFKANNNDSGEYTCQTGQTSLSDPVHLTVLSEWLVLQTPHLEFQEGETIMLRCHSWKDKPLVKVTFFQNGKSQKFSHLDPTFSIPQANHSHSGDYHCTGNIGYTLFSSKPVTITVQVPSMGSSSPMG


Assays:
Experiment in all cases: SPR (Biacore) KD ratio against the template H240-Kn061/H240-Hl071/L73-k0
[1] = target: T1, FcgRIIa R extracellular domain with …
Experimental: (§1) The antibodies were assessed for the binding to each FcgR. […] The resultant value was defined as relative KD, and used as an assessment indicator.
(§2) Analysis of interaction between obj ective antibody and the FcγR was carried out using Biacore T100 (GE Healthcare), Biacore T200, Biacore A100, and Biacore 4000. HBS-EP+ (GE Healthcare) was used as the running buffer, and the measurement temperature was set to 25° C. Chips produced by immobilizing the antigen peptide by the amine coupling method to a Series S sensor Chip CM5 (GE Healthcare), chips produced by allowing preliminarily biotinylated antigen peptides to interact with and immobilize onto a Series S Sensor Chip SA (certified) (GE Healthcare), chips produced by immobilizing Protein L (ACTIGEN, BioVision) to Series S Sencor Chip CM5 (GE Healthcare), or chips produced by immobilizing Protein A/G (Thermo Scientific) to Series S Sencor Chip CM5 (GE Healthcare) were used. Antibodies of interest were captured onto these chips, and allowed to interact to each FcγR diluted with running buffer.

[2] = target: T4, FcgRIIIa V extracellular domain with C-terminal His tag (human, UniProt P08637 17-208)
T4 construct: extracellular domain; also called FcγRIIIa V; FcγRIIIa (V158); not shown: His tag attached to the C terminus
Experimental: as §1, §2

[3] = target: T2, FcgRIIb extracellular domain with …
Experimental: as §1, §2

[4] = target: T3, FcgRIIa H extracellular domain with …
Experimental: as §1, §2

[5] = target: T5, FcgRIIIa F extracellular domain with C-terminal His tag (human, UniProt P08637 17-208)
T5 construct: extracellular domain; also called FcγRIIIa F; FcγRIIIa (F158); not shown: His tag attached to the C terminus
Experimental: as §1, §2

T5 sequence (P08637 17-208): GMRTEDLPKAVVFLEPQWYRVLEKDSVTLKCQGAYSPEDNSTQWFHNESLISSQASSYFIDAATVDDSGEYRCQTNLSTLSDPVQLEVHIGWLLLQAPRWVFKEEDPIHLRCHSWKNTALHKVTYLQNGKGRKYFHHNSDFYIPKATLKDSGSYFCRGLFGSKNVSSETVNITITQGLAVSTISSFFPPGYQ
T4 sequence (P08637 17-208 F176V): as the sequence (P08637 17-208) above, with F160V counted along it

Row | Binder | relative KD (KD of H240-Kn061/H240-Hl071/L73-k0 / KD of variant) [1] | relative KD (KD of H240-Kn061/H240-Hl071/L73-k0 / KD of variant) [2] | relative KD (KD of H240-Kn061/H240-Hl071/L73-k0 / KD of variant) [3] | relative KD (KD of H240-Kn061/H240-Hl071/L73-k0 / KD of variant) [4] | relative KD (KD of H240-Kn061/H240-Hl071/L73-k0 / KD of variant) [5]
1 | H240-Kn061/H240-Hl071/L73-k0 variant with V240A introduced into H240-Hl071 (antibody, human IgG1, kappa, Point variant made with H240-Kn061/H240-Hl071/L73-k0 as template; position by EU numbering; also called H240-Hl071 V240A) heavy 1: QDQLVQSGAEVKKPGASVKVSCKASGFNIKDTYIQWVRQAPGQGLEWMGRIDPLRKQTKYREKFEGRVTITADTSTNTAYMELSSLRSEDTAVYYCVRSGREFDYWGQGTLVTVSSASTKGPSVFPLAPSSKSTSGGTAALGCLVKDYFPEPVTVSWNSGALTSGVHTFPAVLQSSGLYSLSSVVTVPSSSLGTQTYICNVNHKPSNTKVDKKVEPKSCDKTHTCPPCPAPEYYWGPSVFLFPPKPKDTLMISRTPEVTCVVVDVSDEDPEVKFNWYVDGVEVHNAKTKPREEQYNATYRVVSVLTVLHQDWLNGKEYKCKVSNKALPAPIEKTISKAKGQPREPQVCTLPPSRDELTKNQVSLWCLVKGFYPSDIAVEWESNGQPENNYKTTPPVLDSDGSFFLYSKLTVDKSRWQQGNVFSCSVMHEALHNHYTQKSLSLSP heavy 2: QDQLVQSGAEVKKPGASVKVSCKASGFNIKDTYIQWVRQAPGQGLEWMGRIDPLRKQTKYREKFEGRVTITADTSTNTAYMELSSLRSEDTAVYYCVRSGREFDYWGQGTLVTVSSASTKGPSVFPLAPSSKSTSGGTAALGCLVKDYFPEPVTVSWNSGALTSGVHTFPAVLQSSGLYSLSSVVTVPSSSLGTQTYICNVNHKPSNTKVDKKVEPKSCDKTHTCPPCPAPELLGGPSAFLFPPKPKDTLMISRTPEVTCVVVDVSHEDPEVKFNWYVDGVEVHNAKTKPREEQYNSTYRVVSVLTVLHQDWLNGKEYKCKVSNDALPMPIEETISKAKGQPREPQVYTLPPSRCELTKNQVSLSCAVKGFYPSDIAVEWESNGQPENNYKTTPPVLDSDGSFFLVSKLTVDKSRWQQGNVFSCSVMHEALHNHYTQKSLSLSP light: DIQMTQSPSSLSASVGDRVTITCRASQDIHKYIAWYQQKPGQAPRLLIQYTSTLQPGVPSRFSGSGSGTDYTFTISSLQPEDIATYYCLQYEQLRTFGGGTKVEIKRTVAAPSVFIFPPSDEQLKSGTASVVCLLNNFYPREAKVQWKVDNALQSGNSQESVTEQDSKDSTYSLSSTLTLSKADYEKHKVYACEVTHQGLSSPVTKSFNRGEC | 1 | 1.7 | 1 | 1.2 | 1.3
2 | H240-Kn061/H240-Hl071/L73-k0 variant with V240F introduced into H240-Hl071 (antibody, human IgG1, kappa, Point variant made with H240-Kn061/H240-Hl071/L73-k0 as template; position by EU numbering; also called H240-Hl071 V240F) heavy 1: QDQLVQSGAEVKKPGASVKVSCKASGFNIKDTYIQWVRQAPGQGLEWMGRIDPLRKQTKYREKFEGRVTITADTSTNTAYMELSSLRSEDTAVYYCVRSGREFDYWGQGTLVTVSSASTKGPSVFPLAPSSKSTSGGTAALGCLVKDYFPEPVTVSWNSGALTSGVHTFPAVLQSSGLYSLSSVVTVPSSSLGTQTYICNVNHKPSNTKVDKKVEPKSCDKTHTCPPCPAPEYYWGPSVFLFPPKPKDTLMISRTPEVTCVVVDVSDEDPEVKFNWYVDGVEVHNAKTKPREEQYNATYRVVSVLTVLHQDWLNGKEYKCKVSNKALPAPIEKTISKAKGQPREPQVCTLPPSRDELTKNQVSLWCLVKGFYPSDIAVEWESNGQPENNYKTTPPVLDSDGSFFLYSKLTVDKSRWQQGNVFSCSVMHEALHNHYTQKSLSLSP heavy 2: QDQLVQSGAEVKKPGASVKVSCKASGFNIKDTYIQWVRQAPGQGLEWMGRIDPLRKQTKYREKFEGRVTITADTSTNTAYMELSSLRSEDTAVYYCVRSGREFDYWGQGTLVTVSSASTKGPSVFPLAPSSKSTSGGTAALGCLVKDYFPEPVTVSWNSGALTSGVHTFPAVLQSSGLYSLSSVVTVPSSSLGTQTYICNVNHKPSNTKVDKKVEPKSCDKTHTCPPCPAPELLGGPSFFLFPPKPKDTLMISRTPEVTCVVVDVSHEDPEVKFNWYVDGVEVHNAKTKPREEQYNSTYRVVSVLTVLHQDWLNGKEYKCKVSNDALPMPIEETISKAKGQPREPQVYTLPPSRCELTKNQVSLSCAVKGFYPSDIAVEWESNGQPENNYKTTPPVLDSDGSFFLVSKLTVDKSRWQQGNVFSCSVMHEALHNHYTQKSLSLSP light: DIQMTQSPSSLSASVGDRVTITCRASQDIHKYIAWYQQKPGQAPRLLIQYTSTLQPGVPSRFSGSGSGTDYTFTISSLQPEDIATYYCLQYEQLRTFGGGTKVEIKRTVAAPSVFIFPPSDEQLKSGTASVVCLLNNFYPREAKVQWKVDNALQSGNSQESVTEQDSKDSTYSLSSTLTLSKADYEKHKVYACEVTHQGLSSPVTKSFNRGEC | 1.1 | 1 | 0.9 | 0.9 | 1.4
3 | H240-Kn061/H240-Hl071/L73-k0 variant with Y234E introduced into H240-Kn061 (antibody, human IgG1, kappa, Point variant made with H240-Kn061/H240-Hl071/L73-k0 as template; position by EU numbering; also called H240-Kn061 Y234E) heavy 1: QDQLVQSGAEVKKPGASVKVSCKASGFNIKDTYIQWVRQAPGQGLEWMGRIDPLRKQTKYREKFEGRVTITADTSTNTAYMELSSLRSEDTAVYYCVRSGREFDYWGQGTLVTVSSASTKGPSVFPLAPSSKSTSGGTAALGCLVKDYFPEPVTVSWNSGALTSGVHTFPAVLQSSGLYSLSSVVTVPSSSLGTQTYICNVNHKPSNTKVDKKVEPKSCDKTHTCPPCPAPEEYWGPSVFLFPPKPKDTLMISRTPEVTCVVVDVSDEDPEVKFNWYVDGVEVHNAKTKPREEQYNATYRVVSVLTVLHQDWLNGKEYKCKVSNKALPAPIEKTISKAKGQPREPQVCTLPPSRDELTKNQVSLWCLVKGFYPSDIAVEWESNGQPENNYKTTPPVLDSDGSFFLYSKLTVDKSRWQQGNVFSCSVMHEALHNHYTQKSLSLSP heavy 2: QDQLVQSGAEVKKPGASVKVSCKASGFNIKDTYIQWVRQAPGQGLEWMGRIDPLRKQTKYREKFEGRVTITADTSTNTAYMELSSLRSEDTAVYYCVRSGREFDYWGQGTLVTVSSASTKGPSVFPLAPSSKSTSGGTAALGCLVKDYFPEPVTVSWNSGALTSGVHTFPAVLQSSGLYSLSSVVTVPSSSLGTQTYICNVNHKPSNTKVDKKVEPKSCDKTHTCPPCPAPELLGGPSVFLFPPKPKDTLMISRTPEVTCVVVDVSHEDPEVKFNWYVDGVEVHNAKTKPREEQYNSTYRVVSVLTVLHQDWLNGKEYKCKVSNDALPMPIEETISKAKGQPREPQVYTLPPSRCELTKNQVSLSCAVKGFYPSDIAVEWESNGQPENNYKTTPPVLDSDGSFFLVSKLTVDKSRWQQGNVFSCSVMHEALHNHYTQKSLSLSP light: DIQMTQSPSSLSASVGDRVTITCRASQDIHKYIAWYQQKPGQAPRLLIQYTSTLQPGVPSRFSGSGSGTDYTFTISSLQPEDIATYYCLQYEQLRTFGGGTKVEIKRTVAAPSVFIFPPSDEQLKSGTASVVCLLNNFYPREAKVQWKVDNALQSGNSQESVTEQDSKDSTYSLSSTLTLSKADYEKHKVYACEVTHQGLSSPVTKSFNRGEC | 1.4 | 1.6 | 0.5 | 0.7 | 1.9
